What all share (experiment): SPR
Holding throughout (settings): remark: other sources report otherwise

Substrate in assay [1]: CIS F116L-EloB/C (human), Q9NSE2
Substrate in assay [2]: CIS F74, F116L-EloB/C (human), Q9NSE2
Substrate in assay [3]: CIS F74, F116L-EloB/C + F3 (human), Q9NSE2
Substrate in assay [4]: CIS F74L-EloB/C + F3 (human), Q9NSE2
Substrate in assay [5]: CIS R78G, F116L-EloB/C (human), Q9NSE2
Substrate in assay [6]: CIS R78G, F116L-EloB/C + F3 (human), Q9NSE2
Substrate in assay [7]: CIS R78G-EloB/C (human), Q9NSE2
Substrate in assay [8]: CIS R78G-EloB/C + F3 (human), Q9NSE2
The target of assay [9] is CIS-Elo B/C + F3 (human), Q9NSE2.
The target in assay [10] is SOCS2 FL + F3 (human), O14508.
Sequence of SOCS2 FL + F3 (human), O14508 (O14508 whole entry, chain 1 of 3): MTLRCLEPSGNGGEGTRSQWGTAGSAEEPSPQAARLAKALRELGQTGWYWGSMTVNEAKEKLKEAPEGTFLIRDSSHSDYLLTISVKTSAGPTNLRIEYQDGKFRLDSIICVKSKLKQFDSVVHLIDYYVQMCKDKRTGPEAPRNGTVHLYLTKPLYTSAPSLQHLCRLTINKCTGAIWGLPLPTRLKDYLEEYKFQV
Sequence of SOCS2 FL + F3 (human), O14508 (Q15370 whole entry, chain 2 of 3, further chain): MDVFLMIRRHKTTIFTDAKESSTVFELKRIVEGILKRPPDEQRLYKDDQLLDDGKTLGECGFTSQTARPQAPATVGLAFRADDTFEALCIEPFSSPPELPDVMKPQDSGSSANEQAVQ
Sequence of SOCS2 FL + F3 (human), O14508 (Q15369 17-112, chain 3 of 3, further chain): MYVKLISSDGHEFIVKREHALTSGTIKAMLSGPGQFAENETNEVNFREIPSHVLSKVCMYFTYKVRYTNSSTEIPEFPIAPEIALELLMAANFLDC

Take PVPDYTSIHIV (here or on the partner: phosphotyrosine at 595) [GHR pY595 peptide]: the IC50 came out at 6.6 µM in the assay “SPR [1]”; 7 µM in “SPR [2]”; 3.7 µM in the assay “SPR [3]”; 4.2 µM in “SPR [4]”; 20 µM in “SPR [5]”; 8.8 µM in “SPR [6]”. The IC50 in “SPR [7]” is 6.7 µM; in “SPR [8]”, 2 µM; in assay [9], 4.3 µM; in [10] it was 0.2 µM.

By IC50 is commonly meant the midpoint of a concentration-inhibition curve.

The record behind these values is paper PMC8640019.
